The text below walks through data of article PMC4239081, “Differential Interaction Kinetics of a Bipolar Structure-Specific Endonuclease with DNA Flaps Revealed by Single-Molecule Imaging”.

The target of one data set is PCNA (Pyrococcus abyssi) (UniProt Q9UYX8). Particulars: cited from earlier work.
For data set [1], the target named is T1, NucS (PabNucS) (Pyrococcus abyssi, UniProt Q9V2E8 1-251).
T1 sequence: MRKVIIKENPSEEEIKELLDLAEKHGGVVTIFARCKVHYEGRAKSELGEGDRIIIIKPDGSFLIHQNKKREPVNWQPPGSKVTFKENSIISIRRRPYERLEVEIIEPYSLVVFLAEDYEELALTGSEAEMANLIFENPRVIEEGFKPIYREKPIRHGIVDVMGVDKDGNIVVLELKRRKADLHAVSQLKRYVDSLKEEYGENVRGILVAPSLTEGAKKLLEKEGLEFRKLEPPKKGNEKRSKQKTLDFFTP
Put plainly: single-molecule TIRF; 150 mM NaCl, 23 C; kon 0.04e6 M-1s-1, no significant binding; Imaging buffer B2: 20 mM HEPES, 150 mM NaCl (or 50 mM), 0.1 mg/ml casein Blocking Reagent; pH not given; 23 C without divalent cations, or 45 C with or without. Particulars: protein: recombinant; tags: Alexa488 label; chain copies: 2; duplex; strands as printed not perfectly complementary.

For data set [2], the target named is T1, NucS (PabNucS). Put plainly: single-molecule TIRF (koff/kon); 50 mM NaCl, 23 C, no divalent cations; koff 0.52 s-1; Imaging buffer B2: 20 mM HEPES, 150 mM NaCl (or 50 mM), 0.1 mg/ml casein Blocking Reagent; pH not given; 23 C without divalent cations, or 45 C with or without. To be noted: protein: recombinant; tags: Alexa488 label; chain copies: 2; label: Alexa488 on F3D47; 3' flap of 20 nt at ss/dsDNA junction; three strands.

Data set [3] has as its target T1, NucS (PabNucS). Put plainly: single-molecule TIRF (koff/kon); 150 mM NaCl, 23 C, no divalent cations; koff 0.076 s-1; Imaging buffer B2: 20 mM HEPES, 150 mM NaCl (or 50 mM), 0.1 mg/ml casein Blocking Reagent; pH not given; 23 C without divalent cations, or 45 C with or without. To be noted: protein: recombinant; tags: Alexa488 label; chain copies: 2; label: Alexa488 on F3D47; 3' flap of 20 nt at ss/dsDNA junction; three strands.

Data set [4] has as its target T1, NucS (PabNucS). Put plainly: single-molecule TIRF (koff/kon); 45 C, no Mn2+, no PCNA; koff 0.027 s-1; Imaging buffer B2: 20 mM HEPES, 150 mM NaCl (or 50 mM), 0.1 mg/ml casein Blocking Reagent; pH not given; 23 C without divalent cations, or 45 C with or without. Particulars: protein: recombinant; tags: Alexa488 label; chain copies: 2; label: Alexa488 on F3D47; 3' flap of 20 nt; three strands.

Data set [5] deals with T2, NucS (PabNucS);PCNA (PabPCNA) (Pyrococcus abyssi;Pyrococcus abyssi, UniProt Q9V2E8;Q9UYX8 1-251;1-249, |).
T2 sequence 1: T1 sequence
T2 sequence 2: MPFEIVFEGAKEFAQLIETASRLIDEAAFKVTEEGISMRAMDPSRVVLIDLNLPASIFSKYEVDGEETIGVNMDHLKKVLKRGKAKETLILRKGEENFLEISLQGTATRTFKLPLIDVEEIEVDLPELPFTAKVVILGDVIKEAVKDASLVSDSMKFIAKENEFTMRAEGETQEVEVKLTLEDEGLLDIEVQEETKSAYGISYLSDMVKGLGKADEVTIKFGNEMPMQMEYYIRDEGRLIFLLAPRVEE
Put plainly: single-molecule TIRF (koff/kon); 45 C, 50 nM PCNA, no Mn2+; koff 0.55 s-1; Imaging buffer B2: 20 mM HEPES, 150 mM NaCl (or 50 mM), 0.1 mg/ml casein Blocking Reagent; pH not given; 23 C without divalent cations, or 45 C with or without. Particulars: protein: recombinant;recombinant; tags: Alexa488 label;; chain copies: 2;3; label: Alexa488 on F3D47; 3' flap of 20 nt; three strands.

Data set [6] addresses T2, NucS (PabNucS);PCNA (PabPCNA). Put plainly: single-molecule TIRF (koff/kon); 45 C, PCNA, 5 mM MnCl2 (cleaving); koff 0.85 s-1; Imaging buffer B2: 20 mM HEPES, 150 mM NaCl (or 50 mM), 0.1 mg/ml casein Blocking Reagent; pH not given; 23 C without divalent cations, or 45 C with or without. Particulars: protein: recombinant;recombinant; tags: Alexa488 label;; chain copies: 2;3; label: Alexa488 on F3D47; 3' flap of 20 nt; three strands.

Data set [7] addresses T1, NucS (PabNucS). Put plainly: single-molecule TIRF (koff/kon); 50 mM NaCl, 23 C, no divalent cations; koff 0.35 s-1; Imaging buffer B2: 20 mM HEPES, 150 mM NaCl (or 50 mM), 0.1 mg/ml casein Blocking Reagent; pH not given; 23 C without divalent cations, or 45 C with or without. To be noted: protein: recombinant; tags: Alexa488 label; chain copies: 2; label: Alexa488 on F5D42; 5' flap of 20 nt at ss/dsDNA junction; three strands; D27 as printed has a mismatch to 49N.

Data set [8] has as its target T1, NucS (PabNucS). Put plainly: single-molecule TIRF (koff/kon); 150 mM NaCl, 23 C, no divalent cations; koff 0.026 s-1; Imaging buffer B2: 20 mM HEPES, 150 mM NaCl (or 50 mM), 0.1 mg/ml casein Blocking Reagent; pH not given; 23 C without divalent cations, or 45 C with or without. Particulars: protein: recombinant; tags: Alexa488 label; chain copies: 2; label: Alexa488 on F5D42; 5' flap of 20 nt at ss/dsDNA junction; three strands; D27 as printed has a mismatch to 49N.

The target in data set [9] is T2, NucS (PabNucS);PCNA (PabPCNA). Put plainly: single-molecule TIRF (koff/kon); 45 C, PCNA, no Mn2+; koff 0.90 s-1; Imaging buffer B2: 20 mM HEPES, 150 mM NaCl (or 50 mM), 0.1 mg/ml casein Blocking Reagent; pH not given; 23 C without divalent cations, or 45 C with or without. Particulars: protein: recombinant;recombinant; tags: Alexa488 label;; chain copies: 2;3; label: Alexa488 on F5D42; 5' flap of 20 nt; three strands; D27 as printed has a mismatch to 49N.

The target of data set [10] is T1, NucS (PabNucS). Put plainly: single-molecule TIRF (koff/kon); 45 C, no Mn2+, no PCNA; koff 0.50 s-1; Imaging buffer B2: 20 mM HEPES, 150 mM NaCl (or 50 mM), 0.1 mg/ml casein Blocking Reagent; pH not given; 23 C without divalent cations, or 45 C with or without. Particulars: protein: recombinant; tags: Alexa488 label; chain copies: 2; label: Alexa488 on F5D42; 5' flap of 20 nt; three strands; D27 as printed has a mismatch to 49N.

Data set [11] addresses T2, NucS (PabNucS);PCNA (PabPCNA). Put plainly: single-molecule TIRF (koff/kon); 45 C, PCNA, 5 mM MnCl2 (cleaving); koff 0.67 s-1; Imaging buffer B2: 20 mM HEPES, 150 mM NaCl (or 50 mM), 0.1 mg/ml casein Blocking Reagent; pH not given; 23 C without divalent cations, or 45 C with or without. To be noted: protein: recombinant;recombinant; tags: Alexa488 label;; chain copies: 2;3; label: Alexa488 on F5D42; 5' flap of 20 nt; three strands; D27 as printed has a mismatch to 49N.

Take NucS (from UniProt Q9V2E8): the Kd (commonly the free concentration of one partner at which half of the binding sites on the other are occupied at equilibrium, for simple one-to-one binding) with PCNA (Pyrococcus abyssi) is 15 nM.

B1: dsDNA (40N/40NC) (dsDNA)
DNA 1: CCTGCACGAATTAAGCAATTCGATATCATGGTCATAGCT
DNA 2: AGCTATGACCATGATTACGAATTGCTTAATTCGTGCAGG
modifications: biotin? (immobilized)
Consider B1, for which the binding result with NucS (PabNucS) [1] is recorded as “no binding”.

B2: 3'-flap (49N/F3D47/D22) (structured_DNA)
DNA 1: AGCTACCATGCCTGCACGAATTAAGCAATTCGTAATCATGGTCATAGCT
DNA 2: AGCTATGACCATGATTACGAATTGCTTGGAATCCTGACGAACTGTAG
DNA 3: AATTCGTGCAGGCATGGTAGCT
modifications: biotin (two at each end of 49N)
Turning to B2, the Kd with NucS (PabNucS) [2] came to 17.7 ± 0.4 nM; with NucS (PabNucS) [3], 7.8 ± 0.3 nM.

B3: 3'-flap, one biotin (45 C) (structured_DNA)
DNA 1: B2 DNA 1
DNA 2: B2 DNA 2
DNA 3: AATTCGTGCAGGCATGGTAGCT
modifications: one biotin at the extremity
Consider B3, for which the figures for the Kd (with NucS (PabNucS) [4]; in data set [5]; in data set [6]) were 12 ± 3 nM, 161 ± 29 nM and 250 ± 47 nM, respectively.

B4: 5'-flap (49N/F5D42/D27) (structured_DNA)
DNA 1: B2 DNA 1
DNA 2: GATGTCAAGCAGTCCTAAGGAATTCGTGCAGGCATGGTAGCT
DNA 3: AGCTATGATCATGATTACGAATTGCTT
modifications: biotin (two at each end of 49N)
As to B4, the equilibrium dissociation constant (Kd) in the data set with NucS (PabNucS) [7] came out at 9.4 ± 0.4 nM; with NucS (PabNucS) [8] it was 2.6 ± 0.2 nM.

B5: 5'-flap, one biotin (45 C) (structured_DNA)
DNA 1: B2 DNA 1
DNA 2: B4 DNA 2
DNA 3: AGCTATGATCATGATTACGAATTGCTT
modifications: one biotin at the extremity
Consider B5, for which the values for the Kd (in [9]; in the data set with NucS (PabNucS) [10]; in data set [11]) were 195 ± 20 nM, 625 ± 470 nM and 145 ± 15 nM, respectively.
